Among the data in paper doi:10.1101/251942 are stoichiometry N values, retold here.

This assay deals with Brucella adipic acid activated regulator (BaaR), residues 21-284 (Brucella abortus). The assay can be described thus: crystal structure.

Consider “Brucella adipic acid activated regulator (BaaR), residues 21-284 (domain or fragment)”, for which the stoichiometry N was found to be 2.
